The values below come from paper PMC6585716 (Biopolymers, 2017).

code X = not defined here; Az4 = not defined here

This assay addresses Recombinant human vascular endothelial growth factor (VEGF165) (human, UniProt P15692-4 1-191). Conditions: both partners purified.

Sequence of Recombinant human vascular endothelial growth factor (VEGF165) (P15692 other isoform, or with tags, fused parts or gaps): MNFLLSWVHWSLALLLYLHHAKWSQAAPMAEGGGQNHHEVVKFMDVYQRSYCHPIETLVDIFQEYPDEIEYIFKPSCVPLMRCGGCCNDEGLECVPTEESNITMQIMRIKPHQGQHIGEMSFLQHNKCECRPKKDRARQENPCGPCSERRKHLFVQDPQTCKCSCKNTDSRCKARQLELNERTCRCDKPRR

B1: AnchorV (X-VEPNCDIHVMWEWECFERL-Az4) (peptide)
peptide: {code X}-VEPNCDIHVMWEWECFERL-Az4
modifications: cysteine pairing not given here; reading uncertain
notes: also called anti-VEGF cyclic peptide ligand
Broadly, the EC50 is the midpoint of the concentration-response curve. For the molecule B1, the EC50 was found to be 140 ± 21 nM.
